# Assay results taken from patent US20180327499A1 (published 2018).
# T1: recombinant human NKG2D/Fc chimera (R&D Systems) (human, UniProt P26718 78-216)
# T1 chain: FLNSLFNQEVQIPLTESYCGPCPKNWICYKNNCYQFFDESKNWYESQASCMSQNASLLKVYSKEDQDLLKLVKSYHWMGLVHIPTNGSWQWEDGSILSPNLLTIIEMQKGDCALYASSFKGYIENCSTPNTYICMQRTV
# T2: NKG2D on HEK-293T cells co-transfected with NKG2D and DAP10 (UniProt P26718 1-216)
# T2 chain: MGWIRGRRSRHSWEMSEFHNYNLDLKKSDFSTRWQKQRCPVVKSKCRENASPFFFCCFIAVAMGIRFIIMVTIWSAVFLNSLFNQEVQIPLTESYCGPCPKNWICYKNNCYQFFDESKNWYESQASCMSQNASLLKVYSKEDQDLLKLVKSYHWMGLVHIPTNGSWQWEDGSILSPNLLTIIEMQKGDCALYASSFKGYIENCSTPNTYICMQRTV
# What was measured:
# [1] = biological target: T1, recombinant human NKG2D/Fc chimera (R&D …); experiment: ELISA; table printed under the ELISA plot; legend values suggest HEK-293 cells
# [2] = biological target: T2, NKG2D on HEK-293T cells co-transfected …; experiment: flow cytometry; table printed under the HEK-293 plot; legend values suggest ELISA
# sdAb c7b = experiment: ELISA; table printed under the ELISA plot; legend values suggest HEK-293 cells
# bsfAb ET2F9 = experiment: flow cytometry
# bsfAb ET1F8 = experiment: flow cytometry
binder,measurement,setting,value
sdAb ET2F9 (VHH) VHH: QVQLVQSGGGLVQPGGSLRLSCAASGFTFDDYAMSWVRQAPGKGLEWVSAISWSGRTTYYAESMKGRFTTSRDNAKNTLYLQMNSLKPEDTALYYCARGDVAIRGNLDAWGQGTQVTVSS,Kd,[1],1710 nM
same,Kd,[2],41.1 nM
Fc-NKG2D (Fc fusion) FLNSLFNQEVQIPLTESYCGPCPKNWICYKNNCYQFFDESKNWYESQASCMSQNASLLKVYSKEDQDLLKLVKSYHWMGLVHIPTNGSWQWEDGSILSPNLLTIIEMQKGDCALYASSFKGYIENCSTPNTYICMQRTV,Kd,sdAb c7b,6.07 nM
transfected HEK-293 (receptor) MGWIRGRRSRHSWEMSEFHNYNLDLKKSDFSTRWQKQRCPVVKSKCRENASPFFFCCFIAVAMGIRFIIMVTIWSAVFLNSLFNQEVQIPLTESYCGPCPKNWICYKNNCYQFFDESKNWYESQASCMSQNASLLKVYSKEDQDLLKLVKSYHWMGLVHIPTNGSWQWEDGSILSPNLLTIIEMQKGDCALYASSFKGYIENCSTPNTYICMQRTV,Kd,bsfAb ET2F9,33.2 nM
same,Kd,bsfAb ET1F8,32.5 nM
